Legend:
[1] = molecular target: α6β1 integrin on Expi293F cells, α6 D153A (human, UniProt P05556 21-798, Mn2+; A cytoplasmic form assumed); test: flow cytometry on cells; Expi293F cells transiently expressing α6 (wild type or mutant) with β1, in HBS-BSA with 0.5 mM MnCl2, varying concentrations of sfGFP-tLM511, room temperature 2 h, no washing; non-transfected cells as baseline; settings: one partner purified
[2] = molecular target: α6β1 integrin on Expi293F cells, α6 R157A (human, UniProt P05556 21-798, Mn2+; A cytoplasmic form assumed); test: as above; settings: one partner purified
Sequence of α6β1 integrin on Expi293F cells, α6 R157A (chain, as listed by the source R157A, chain 1 of 2): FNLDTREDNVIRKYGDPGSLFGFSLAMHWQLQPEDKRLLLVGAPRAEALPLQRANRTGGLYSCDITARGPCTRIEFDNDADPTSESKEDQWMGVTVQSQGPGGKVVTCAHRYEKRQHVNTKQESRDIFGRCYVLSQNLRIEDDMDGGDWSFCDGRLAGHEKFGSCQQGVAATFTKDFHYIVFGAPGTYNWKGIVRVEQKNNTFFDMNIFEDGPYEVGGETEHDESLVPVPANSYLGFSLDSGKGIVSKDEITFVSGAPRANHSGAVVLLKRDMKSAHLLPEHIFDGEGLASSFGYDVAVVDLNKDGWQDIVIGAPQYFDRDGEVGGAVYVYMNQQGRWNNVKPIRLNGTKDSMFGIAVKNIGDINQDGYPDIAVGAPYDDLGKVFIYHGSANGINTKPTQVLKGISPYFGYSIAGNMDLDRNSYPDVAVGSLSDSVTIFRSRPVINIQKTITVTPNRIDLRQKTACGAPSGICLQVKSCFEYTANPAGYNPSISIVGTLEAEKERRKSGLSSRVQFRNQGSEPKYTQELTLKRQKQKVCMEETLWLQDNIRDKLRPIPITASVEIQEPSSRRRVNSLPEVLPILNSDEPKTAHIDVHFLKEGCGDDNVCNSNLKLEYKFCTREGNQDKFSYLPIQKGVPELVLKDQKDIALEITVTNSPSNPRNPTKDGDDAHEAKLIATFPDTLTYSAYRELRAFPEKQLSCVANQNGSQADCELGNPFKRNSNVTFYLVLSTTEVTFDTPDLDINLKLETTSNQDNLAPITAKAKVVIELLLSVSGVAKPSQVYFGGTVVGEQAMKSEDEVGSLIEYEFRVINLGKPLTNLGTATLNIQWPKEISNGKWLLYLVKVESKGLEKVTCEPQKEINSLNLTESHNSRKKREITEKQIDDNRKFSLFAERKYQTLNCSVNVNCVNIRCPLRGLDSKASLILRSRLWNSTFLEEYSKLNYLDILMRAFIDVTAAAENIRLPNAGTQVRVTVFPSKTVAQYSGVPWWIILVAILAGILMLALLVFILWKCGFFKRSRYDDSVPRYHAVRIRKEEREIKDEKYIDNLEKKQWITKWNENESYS
Sequence of α6β1 integrin on Expi293F cells, α6 R157A (P05556 21-798, chain 2 of 2): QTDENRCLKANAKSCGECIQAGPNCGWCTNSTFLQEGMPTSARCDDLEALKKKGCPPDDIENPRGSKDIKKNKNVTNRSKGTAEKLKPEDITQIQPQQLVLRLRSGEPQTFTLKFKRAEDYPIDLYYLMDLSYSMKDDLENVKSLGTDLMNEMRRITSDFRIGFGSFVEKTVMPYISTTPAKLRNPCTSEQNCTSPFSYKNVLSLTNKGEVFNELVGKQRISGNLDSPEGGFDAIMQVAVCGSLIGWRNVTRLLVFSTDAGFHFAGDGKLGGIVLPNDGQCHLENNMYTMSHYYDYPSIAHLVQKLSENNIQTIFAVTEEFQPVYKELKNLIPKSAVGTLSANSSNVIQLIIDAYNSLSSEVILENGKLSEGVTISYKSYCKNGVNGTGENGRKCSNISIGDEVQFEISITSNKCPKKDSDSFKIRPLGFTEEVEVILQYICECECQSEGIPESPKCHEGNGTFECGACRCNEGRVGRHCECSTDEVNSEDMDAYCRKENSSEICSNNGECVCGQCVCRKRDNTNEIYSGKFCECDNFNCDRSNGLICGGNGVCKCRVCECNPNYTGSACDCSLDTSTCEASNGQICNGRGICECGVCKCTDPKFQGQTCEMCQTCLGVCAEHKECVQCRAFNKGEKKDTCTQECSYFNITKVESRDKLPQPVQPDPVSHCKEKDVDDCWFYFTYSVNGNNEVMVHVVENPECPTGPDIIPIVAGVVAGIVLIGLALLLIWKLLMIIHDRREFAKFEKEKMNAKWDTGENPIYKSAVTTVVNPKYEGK

Sequence of α6β1 integrin on Expi293F cells, α6 D153A (chain, as listed by the source D153A, chain 1 of 2): as the sequence (chain, as listed by the source R157A, chain 1 of 2) above, with D153A, A157R counted along it
Sequence of α6β1 integrin on Expi293F cells, α6 D153A (P05556 21-798, chain 2 of 2): as the sequence (P05556 21-798, chain 2 of 2) above

B1: trimeric fusion protein PA-sfGFP-tLM511 (complex)
chain 1: ENVERWQGQYEGLRGQDLGQAVLDAGHSVSTLEKTLPQLLAKLSILENRGVHNASLALSASIGRVRELIAQARGAASKVKVPMKFNGRSGVQLRTPRDLADLAAYTALKFYLQGPEPEPGQGTEDRFVMYMGSRQATGDYMGVSLRDKKVHWVYQLGEAGPAVLSIDEDIGEQFAAVSLDRTLQFGHMSVTVERQMIQETKGDTVAPGAEGLLNLRPDDFVFYVGGYPSTFTPPPLLRFPGYRGCIEMDTLNEEVVSLYNFERTFQLDTAVDRPCARSKSTGDPWLTDGSYLDGTGFARISFDSQISTTKRFEQELRLVSYSGVLFFLKQQSQFLCLAVQEGSLVLLYDFGAGLKKAVPLQPPPPLTSASKAIQVFLLGGSRKRVLVRVERATVYSVEQDNDLELADAYYLGGVPPDQLPPSLRRLFPTGGSVRGCVKGIKALGKYVDLKRLNTTGVSAGCTADLLVGRAMTFHGHGFLRLALSNVAPLTGNVYSGFGFHSAQDSALLYYRASPDGLCQVSLQQGRVSLQLLRTEVKTQAGFADGAPHYVAFYSNATGVWLYVDDQLQQMKPHRGPPPELQPQPEGPPRLLLGGLPESGTIYNFSGCISNVFVQRLLGPQRVFDLQQNLGSVNVSTGCAPALQAQTPGLGPRGLQATARKASRRSRQPARHPA
chain 2: not shown
chain 3: DTVDLNKLNEIEGTLNKAKDEMKVSDLDRKVSDLENEAKKQEAAIMDYNRDIEEIMKDIRNLEDIRKTLPSGCFNTPSIEKP
notes: laminin α5 chain (tLMα5), human, residues E2655-A3327, numbered from the initiation Met; sfGFP inserted between the PA tag and tLMα5; laminin β1 chain (tLMβ1), human, residues D1714-L1786, numbered from the initiation Met; laminin γ1 chain (tLMγ1), human, residues D1528-P1609, numbered from the initiation Met; sfGFP gene: GenBank ASL68970.1; also called sfGFP-fused tLM511; fluorescent tLM511 …
fold increase in KD over the wild type [1]: 3.6 fold | fold increase in KD over the wild type [2]: 2.3 fold

Reference: paper PMC8241838, “Structural mechanism of laminin recognition by integrin” (Nature Communications, 2021)
